Source: publication PMC8695382 (Nature, 2021)

B1: Mcm5 (natural protein, Saccharomyces cerevisiae)
chain: MSFDRPEIYSAPVLQGESPNDDDNTEIIKSFKNFILEFRLDSQFIYRDQLRNNILVKNYSLTVNMEHLIGYNEDIYKKLSDEPSDIIPLFETAITQVAKRISILSRAQSANNNDKDPENTSMDTDSLLLNSLPTFQLILNSNANQIPLRDLDSEHVSKIVRLSGIIISTSVLSSRATYLSIMCRNCRHTTSITINNFNSITGNTVSLPRSCLSTIESESSMANESNIGDESTKKNCGPDPYIIIHESSKFIDQQFLKLQEIPELVPVGEMPRNLTMTCDRYLTNKVIPGTRVTIVGIYSIYNSKNGAGSGRSGGGNGGSGVAIRTPYIKILGIQSDVETSSIWNSVTMFTEEEEEEFLQLSRNPKLYEILTNSIAPSIFGNEDIKKAIVCLLMGGSKKILPDGMRLRGDINVLLLGDPGTAKSQLLKFVEKVSPIAVYTSGKGSSAAGLTASVQRDPMTREFYLEGGAMVLADGGVVCIDEFDKMRDEDRVAIHEAMEQQTISIAKAGITTVLNSRTSVLAAANPIYGRYDDLKSPGDNIDFQTTILSRFDMIFIVKDDHNEERDISIANHVINIHTGNANAMQNQQEENGSEISIEKMKRYITYCRLKCAPRLSPQAAEKLSSNFVTIRKQLLINELESTERSSIPITIRQLEAIIRITESLAKLELSPIAQERHVDEAIRLFQASTMDAASQDPIGGLNQASGTSLSEIRRFEQELKRRLPIGWSTSYQTLRREFVDTHRFSQLALDKALYALEKHETIQLRHQGQNIYRSGV
notes: Mcm5, S. cerevisiae; Subunit of m2; source: purified as part of CMG

What was measured:
Assay in all cases: cryo-EM structure; yeast replisome–SCF^Dia2 complexes after gradient fixation; particles translocated onto dsDNA (conformations I and II)
Settings in all cases: both partners purified
[1] = target: T1, Pol2 (Saccharomyces cerevisiae, UniProt P21951 1-2222)
T1 construct: Pol2, catalytic subunit of DNA polymerase ε, S. cerevisiae; catalytic domain ends at residue 1186, non-catalytic domain begins at residue 1321; Subunit of m15; source: purified as part of Pol-ε
T1 sequence (P21951 whole entry, the tested form may be a part): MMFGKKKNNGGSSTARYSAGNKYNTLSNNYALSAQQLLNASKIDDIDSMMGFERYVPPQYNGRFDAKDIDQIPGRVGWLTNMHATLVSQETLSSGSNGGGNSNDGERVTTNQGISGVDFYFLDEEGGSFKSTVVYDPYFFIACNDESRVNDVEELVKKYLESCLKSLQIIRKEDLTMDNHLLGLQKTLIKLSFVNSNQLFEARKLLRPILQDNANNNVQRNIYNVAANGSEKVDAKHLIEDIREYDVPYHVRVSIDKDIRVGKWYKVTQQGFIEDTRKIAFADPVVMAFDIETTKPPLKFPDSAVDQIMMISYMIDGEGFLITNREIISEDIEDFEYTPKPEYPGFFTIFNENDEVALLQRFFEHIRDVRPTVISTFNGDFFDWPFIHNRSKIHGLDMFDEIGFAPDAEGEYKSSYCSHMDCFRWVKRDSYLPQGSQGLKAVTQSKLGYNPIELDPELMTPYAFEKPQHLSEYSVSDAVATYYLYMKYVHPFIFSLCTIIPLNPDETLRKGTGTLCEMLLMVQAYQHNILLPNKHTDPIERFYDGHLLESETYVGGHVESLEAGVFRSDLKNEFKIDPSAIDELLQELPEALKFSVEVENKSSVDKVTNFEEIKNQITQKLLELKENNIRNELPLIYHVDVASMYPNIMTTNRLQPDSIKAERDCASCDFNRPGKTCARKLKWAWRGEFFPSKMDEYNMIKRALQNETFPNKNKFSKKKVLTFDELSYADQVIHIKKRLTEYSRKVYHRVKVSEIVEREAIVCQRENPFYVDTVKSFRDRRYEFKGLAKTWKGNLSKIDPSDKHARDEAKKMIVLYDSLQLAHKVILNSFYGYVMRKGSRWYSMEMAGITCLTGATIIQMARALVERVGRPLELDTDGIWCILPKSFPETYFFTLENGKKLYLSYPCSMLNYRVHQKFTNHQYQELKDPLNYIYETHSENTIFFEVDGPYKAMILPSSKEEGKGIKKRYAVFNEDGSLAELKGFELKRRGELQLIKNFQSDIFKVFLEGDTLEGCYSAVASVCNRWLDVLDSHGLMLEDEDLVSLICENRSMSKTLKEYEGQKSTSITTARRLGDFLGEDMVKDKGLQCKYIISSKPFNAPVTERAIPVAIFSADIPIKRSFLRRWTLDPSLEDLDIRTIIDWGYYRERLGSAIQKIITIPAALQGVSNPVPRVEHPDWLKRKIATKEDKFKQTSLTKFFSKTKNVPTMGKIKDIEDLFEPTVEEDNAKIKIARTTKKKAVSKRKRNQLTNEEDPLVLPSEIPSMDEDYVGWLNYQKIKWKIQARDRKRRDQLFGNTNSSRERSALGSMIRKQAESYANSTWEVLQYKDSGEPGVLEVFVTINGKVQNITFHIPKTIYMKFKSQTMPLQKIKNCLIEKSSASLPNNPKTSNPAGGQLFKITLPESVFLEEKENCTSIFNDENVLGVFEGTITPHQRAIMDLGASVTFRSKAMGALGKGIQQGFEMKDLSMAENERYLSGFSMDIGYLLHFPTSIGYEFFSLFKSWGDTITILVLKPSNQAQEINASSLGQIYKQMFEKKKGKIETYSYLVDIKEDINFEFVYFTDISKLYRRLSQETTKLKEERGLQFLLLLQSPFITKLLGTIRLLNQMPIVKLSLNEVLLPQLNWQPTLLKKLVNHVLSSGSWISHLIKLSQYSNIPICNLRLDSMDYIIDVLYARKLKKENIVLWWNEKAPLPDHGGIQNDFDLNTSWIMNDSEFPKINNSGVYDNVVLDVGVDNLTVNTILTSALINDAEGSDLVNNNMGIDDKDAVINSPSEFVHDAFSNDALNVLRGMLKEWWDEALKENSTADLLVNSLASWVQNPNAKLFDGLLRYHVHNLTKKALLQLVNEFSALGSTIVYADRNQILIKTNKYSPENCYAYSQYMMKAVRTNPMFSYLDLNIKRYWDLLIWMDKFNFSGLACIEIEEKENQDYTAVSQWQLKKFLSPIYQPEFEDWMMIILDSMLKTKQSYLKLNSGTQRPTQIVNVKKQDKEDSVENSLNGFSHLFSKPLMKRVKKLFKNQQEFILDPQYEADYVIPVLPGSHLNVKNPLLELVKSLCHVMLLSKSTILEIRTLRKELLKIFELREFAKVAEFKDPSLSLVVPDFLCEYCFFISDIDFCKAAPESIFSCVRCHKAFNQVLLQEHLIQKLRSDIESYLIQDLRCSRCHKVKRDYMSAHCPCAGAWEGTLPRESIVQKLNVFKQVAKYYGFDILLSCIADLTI

[2] = target: B1
[3] = target: T2, Mcm3 (Saccharomyces cerevisiae, UniProt P24279 1-971)
T2 construct: Mcm3, S. cerevisiae; Subunit of m2; source: purified as part of CMG
T2 sequence (P24279 whole entry): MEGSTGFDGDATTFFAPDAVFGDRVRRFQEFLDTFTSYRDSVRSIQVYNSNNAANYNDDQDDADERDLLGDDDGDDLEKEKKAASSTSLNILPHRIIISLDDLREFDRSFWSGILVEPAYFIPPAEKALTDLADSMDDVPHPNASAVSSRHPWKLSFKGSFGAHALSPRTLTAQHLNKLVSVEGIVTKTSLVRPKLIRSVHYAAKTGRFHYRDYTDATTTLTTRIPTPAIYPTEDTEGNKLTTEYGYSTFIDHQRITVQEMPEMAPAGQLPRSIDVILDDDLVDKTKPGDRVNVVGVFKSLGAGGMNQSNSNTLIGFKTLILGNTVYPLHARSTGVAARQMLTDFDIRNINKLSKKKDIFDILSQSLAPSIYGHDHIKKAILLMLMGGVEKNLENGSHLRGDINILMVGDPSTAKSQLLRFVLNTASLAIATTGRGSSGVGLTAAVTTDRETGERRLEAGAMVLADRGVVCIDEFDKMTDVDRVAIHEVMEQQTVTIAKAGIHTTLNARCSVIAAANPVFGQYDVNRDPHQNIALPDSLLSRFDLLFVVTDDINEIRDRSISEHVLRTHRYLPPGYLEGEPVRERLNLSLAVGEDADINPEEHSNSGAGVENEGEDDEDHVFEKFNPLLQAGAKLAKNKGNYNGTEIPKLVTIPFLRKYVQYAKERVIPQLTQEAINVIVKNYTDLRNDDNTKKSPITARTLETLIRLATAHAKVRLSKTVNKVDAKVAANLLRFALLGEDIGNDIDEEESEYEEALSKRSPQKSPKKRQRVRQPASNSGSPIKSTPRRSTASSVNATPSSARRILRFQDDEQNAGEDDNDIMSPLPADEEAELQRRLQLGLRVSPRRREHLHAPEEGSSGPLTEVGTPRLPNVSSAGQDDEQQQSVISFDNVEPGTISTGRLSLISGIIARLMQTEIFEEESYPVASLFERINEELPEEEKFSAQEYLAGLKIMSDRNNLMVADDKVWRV

[4] = target: T3, Dia2 (Saccharomyces cerevisiae, UniProt Q08496 1-732)
T3 construct: Dia2, F-box protein, S. cerevisiae; model built for F-box (211–247), LRRs (248–716) and C-terminal tail (717–732); N-terminal TPR domain not visible; Subunit of m1 as it stands in the cryo-EM samples; also called Dia2^LRR (its leucine-rich repeat domain); source: purified as part of SCF^Dia2
T3 sequence: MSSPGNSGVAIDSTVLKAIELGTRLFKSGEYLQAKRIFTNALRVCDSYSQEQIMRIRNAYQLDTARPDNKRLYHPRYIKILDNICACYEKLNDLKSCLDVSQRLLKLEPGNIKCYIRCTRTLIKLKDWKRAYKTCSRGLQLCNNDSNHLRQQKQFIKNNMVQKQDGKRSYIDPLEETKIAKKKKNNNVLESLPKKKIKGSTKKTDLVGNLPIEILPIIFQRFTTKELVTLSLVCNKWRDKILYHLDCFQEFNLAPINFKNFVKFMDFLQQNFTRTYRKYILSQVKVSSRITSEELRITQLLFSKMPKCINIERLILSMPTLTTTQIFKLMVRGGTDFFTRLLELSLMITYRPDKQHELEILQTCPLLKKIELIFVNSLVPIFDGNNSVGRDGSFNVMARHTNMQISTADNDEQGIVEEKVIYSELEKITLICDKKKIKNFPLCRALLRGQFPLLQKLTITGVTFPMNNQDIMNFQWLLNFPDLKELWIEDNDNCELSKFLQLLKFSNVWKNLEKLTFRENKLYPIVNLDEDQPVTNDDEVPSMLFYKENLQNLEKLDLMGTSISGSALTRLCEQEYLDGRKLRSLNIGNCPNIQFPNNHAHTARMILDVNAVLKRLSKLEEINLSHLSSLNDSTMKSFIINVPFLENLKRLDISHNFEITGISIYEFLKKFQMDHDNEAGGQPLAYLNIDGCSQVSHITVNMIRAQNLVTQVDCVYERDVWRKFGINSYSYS

Question: Does B1 bind [1]?
Answer: binds

B2: Mcm2 (natural protein, Saccharomyces cerevisiae)
chain: MSDNRRRRREEDDSDSENELPPSSPQQHFRGGMNPVSSPIGSPDMINPEGDDNEVDDVPDIDEVEEQMNEVDLMDDNMYEDYAADHNRDRYDPDQVDDREQQELSLSERRRIDAQLNERDRLLRNVAYIDDEDEEQEGAAQLDEMGLPVQRRRRRRQYEDLENSDDDLLSDMDIDPLREELTLESLSNVKANSYSEWITQPNVSRTIARELKSFLLEYTDETGRSVYGARIRTLGEMNSESLEVNYRHLAESKAILALFLAKCPEEMLKIFDLVAMEATELHYPDYARIHSEIHVRISDFPTIYSLRELRESNLSSLVRVTGVVTRRTGVFPQLKYVKFNCLKCGSILGPFFQDSNEEIRISFCTNCKSKGPFRVNGEKTVYRNYQRVTLQEAPGTVPPGRLPRHREVILLADLVDVSKPGEEVEVTGIYKNNYDGNLNAKNGFPVFATIIEANSIKRREGNTANEGEEGLDVFSWTEEEEREFRKISRDRGIIDKIISSMAPSIYGHRDIKTAVACSLFGGVPKNVNGKHSIRGDINVLLLGDPGTAKSQILKYVEKTAHRAVFATGQGASAVGLTASVRKDPITKEWTLEGGALVLADKGVCLIDEFDKMNDQDRTSIHEAMEQQSISISKAGIVTTLQARCSIIAAANPNGGRYNSTLPLAQNVSLTEPILSRFDILCVVRDLVDEEADERLATFVVDSHVRSHPENDEDREGEELKNNGESAIEQGEDEINEQLNARQRRLQRQRKKEEEISPIPQELLMKYIHYARTKIYPKLHQMDMDKVSRVYADLRRESISTGSFPITVRHLESILRIAESFAKMRLSEFVSSYDLDRAIKVVVDSFVDAQKVSVRRQLRRSFAIYTLGH
notes: Mcm2, S. cerevisiae; Subunit of m2; source: purified as part of CMG
Question: Does B2 bind [1]?
Answer: binds

B3: Dpb2 (natural protein, Saccharomyces cerevisiae)
chain: MFGSGNVLPVKIQPPLLRPLAYRVLSRKYGLSIKSDGLSALAEFVGTNIGANWRQGPATIKFLEQFAAVWKQQERGLFIDQSGVKEVIQEMKEREKVEWSHEHPIQHEENILGRTDDDENNSDDEMPIAADSSLQNVSLSSPMRQPTERDEYKQPFKPESSKALDWRDYFKVINASQQQRFSYNPHKMQFIFVPNKKQNGLGGIAGFLPDIEDKVQMFLTRYYLTNDRVMRNENFQNSDMFNPLSSMVSLQNELSNTNRQQQSSSMSITPIKNLLGRDAQNFLLLGLLNKNFKGNWSLEDPSGSVEIDISQTIPTQGHYYVPGCMVLVEGIYYSVGNKFHVTSMTLPPGERREITLETIGNLDLLGIHGISNNNFIARLDKDLKIRLHLLEKELTDHKFVILGANLFLDDLKIMTALSKILQKLNDDPPTLLIWQGSFTSVPVFASMSSRNISSSTQFKNNFDALATLLSRFDNLTENTTMIFIPGPNDLWGSMVSLGASGTLPQDPIPSAFTKKINKVCKNVVWSSNPTRIAYLSQEIVIFRDDLSGRFKRHRLEFPFNESEDVYTENDNMMSKDTDIVPIDELVKEPDQLPQKVQETRKLVKTILDQGHLSPFLDSLRPISWDLDHTLTLCPIPSTMVLCDTTSAQFDLTYNGCKVINPGSFIHNRRARYMEYVPSSKKTIQEEIYI
notes: Dpb2, subunit of DNA polymerase ε, S. cerevisiae; Subunit of m15; source: purified as part of Pol-ε
Question: Does B3 bind [2]?
Answer: binds

B4: Mcm7 (natural protein, Saccharomyces cerevisiae)
chain: MSAALPSIQLPVDYNNLFNEITDFLVTFKQDTLSSDATRNENEDENLDAENIEQHLLEKGPKYMAMLQKVANRELNSVIIDLDDILQYQNEKFLQGTQADDLVSAIQQNANHFTELFCRAIDNNMPLPTKEIDYKDDVLDVILNQRRLRNERMLSDRTNEIRSENLMDTTMDPPSSMNDALREVVEDETELFPPNLTRRYFLYFKPLSQNCARRYRKKAISSKPLSVRQIKGDFLGQLITVRGIITRVSDVKPAVEVIAYTCDQCGYEVFQEVNSRTFTPLSECTSEECSQNQTKGQLFMSTRASKFSAFQECKIQELSQQVPVGHIPRSLNIHVNGTLVRSLSPGDIVDVTGIFLPAPYTGFKALKAGLLTETYLEAQFVRQHKKKFASFSLTSDVEERVMELITSGDVYNRLAKSIAPEIYGNLDVKKALLLLLVGGVDKRVGDGMKIRGDINVCLMGDPGVAKSQLLKAICKISPRGVYTTGKGSSGVGLTAAVMKDPVTDEMILEGGALVLADNGICCIDEFDKMDESDRTAIHEVMEQQTISISKAGINTTLNARTSILAAANPLYGRYNPRLSPLDNINLPAALLSRFDILFLMLDIPSRDDDEKLAEHVTYVHMHNKQPDLDFTPVEPSKMREYIAYAKTKRPVMSEAVNDYVVQAYIRLRQDSKREMDSKFSFGQATPRTLLGIIRLSQALAKLRLADMVDIDDVEEALRLVRVSKESLYQETNKSKEDESPTTKIFTIIKKMLQETGKNTLSYENIVKTVRLRGFTMLQLSNCIQEYSYLNVWHLINEGNTLKFVDDGTMDTDQEDSLVSTPKLAPQTTASANVSAQDSDIDLQDA
notes: Mcm7, S. cerevisiae; Subunit of m2; source: purified as part of CMG
Question: Does B4 bind [3]?
Answer: binds

B5: Csm3 (natural protein, Saccharomyces cerevisiae)
chain: MDQDFDSLLLGFNDSDSVQKDPTVPNGLDGSVVDPTIADPTAITARKRRPQVKLTAEKLLSDKGLPYVLKNAHKRIRISSKKNSYDNLSNIIQFYQLWAHELFPKAKFKDFMKICQTVGKTDPVLREYRVSLFRDEMGMSFDVGTRETGQDLERQSPMVEEHVTSAEERPIVADSFAQDKRNVNNVDYDNDEDDDIYHLSYRNRRGRVLDERGNNETVLNNVVPPKEDLDALLKTFRVQGPVGLEENEKKLLLGWLDAHRKMEKGSMTEEDVQLIQSLEEWEMNDIEGQHTHYDLLPGGDEFGVDQDELDAMKEMGF
notes: Csm3, S. cerevisiae; Subunit of m12; source: purified as part of Tof1–Csm3
Question: Does B5 bind [4]?
Answer: binds
